In publication PMC10786891, “Massively parallel profiling of RNA-targeting CRISPR-Cas13d” one finds Kd data, which are given here for 27 molecules.

A word on the Kd: it is a measure of binding affinity in units of concentration. A high value points to a looser complex.

The labels stand for the following.
B1: target 1 A16C,C21U (mixed)
RNA 1: CACCCGUGCAAAAAUGCAGGGGUCUAAAACUGAGCGGAUAACCUCUCUAUGG
RNA 2: GGGAAUGGAUCCACAUCUACGAAUUCGUACUAUAGCGAGGUUAUCCGCUCACCGAGAUCGGAAGAGCACACGU
B2: target 1 C6A,A20C (mixed)
RNA 1: CACCCGUGCAAAAAUGCAGGGGUCUAAAACUGAGCGGAUAACCUCUCUAUGG
RNA 2: GGGAAUGGAUCCACAUCUACGAAUUCGUACCCUAGAGAGGUUAUCAGCUCACCGAGAUCGGAAGAGCACACGU
B3: target 1 insG 3' of 16,insG 3' of 9 (mixed)
RNA 1: CACCCGUGCAAAAAUGCAGGGGUCUAAAACUGAGCGGAUAACCUCUCUAUGG
RNA 2: GGGAAUGGAUCCACAUCUACGAAUUCGUACCAUAGAGGAGGUUAGUCCGCUCACCGAGAUCGGAAGAGCACACGU
B4: target 1 A1G,U3C (mixed)
RNA 1: CACCCGUGCAAAAAUGCAGGGGUCUAAAACUGAGCGGAUAACCUCUCUAUGG
RNA 2: GGGAAUGGAUCCACAUCUACGAAUUCGUACCAUAGAGAGGUUAUCCGCCCGCCGAGAUCGGAAGAGCACACGU
B5: target 3 A5G,C6G (mixed)
RNA 1: CACCCGUGCAAAAUUGCAGGGGUCUAAAACGACCUGAAUAUUUCAGAUCAAA
RNA 2: GGGAAUGGAUCCACAUCUACGAAUUCGUUUUUGAUCUGAAAUAUUGGGGUCUGCAGAUCGGAAGAGCACACGU
B6: target 3 insU 3' of 13,insC 3' of 3 (mixed)
RNA 1: CACCCGUGCAAAAUUGCAGGGGUCUAAAACGACCUGAAUAUUUCAGAUCAAA
RNA 2: GGGAAUGGAUCCACAUCUACGAAUUCGUUUUUGAUCUGAUAAUAUUCAGGCUCUGCAGAUCGGAAGAGCACACGU
B7: target 3 C1A,G3A (mixed)
RNA 1: CACCCGUGCAAAAUUGCAGGGGUCUAAAACGACCUGAAUAUUUCAGAUCAAA
RNA 2: GGGAAUGGAUCCACAUCUACGAAUUCGUUUUUGAUCUGAAAUAUUCAGAUAUGCAGAUCGGAAGAGCACACGU
B8: target 3 insA 3' of 22,insG 3' of 8 (mixed)
RNA 1: CACCCGUGCAAAAUUGCAGGGGUCUAAAACGACCUGAAUAUUUCAGAUCAAA
RNA 2: GGGAAUGGAUCCACAUCUACGAAUUCGUUUAUUGAUCUGAAAUAUGUCAGGUCUGCAGAUCGGAAGAGCACACGU
B9: target 3 insC 3' of 7,insC 3' of 4 (mixed)
RNA 1: CACCCGUGCAAAAUUGCAGGGGUCUAAAACGACCUGAAUAUUUCAGAUCAAA
RNA 2: GGGAAUGGAUCCACAUCUACGAAUUCGUUUUUGAUCUGAAAUAUUCCAGCGUCUGCAGAUCGGAAGAGCACACGU
B10: target 3 insA 3' of 22,insU 3' of 6 (mixed)
RNA 1: CACCCGUGCAAAAUUGCAGGGGUCUAAAACGACCUGAAUAUUUCAGAUCAAA
RNA 2: GGGAAUGGAUCCACAUCUACGAAUUCGUUUAUUGAUCUGAAAUAUUCUAGGUCUGCAGAUCGGAAGAGCACACGU
B11: target 3 G3U,A9G (mixed)
RNA 1: CACCCGUGCAAAAUUGCAGGGGUCUAAAACGACCUGAAUAUUUCAGAUCAAA
RNA 2: GGGAAUGGAUCCACAUCUACGAAUUCGUUUUUGAUCUGAAAUGUUCAGUUCUGCAGAUCGGAAGAGCACACGU
B12: target 3 C6G,U8G (mixed)
RNA 1: CACCCGUGCAAAAUUGCAGGGGUCUAAAACGACCUGAAUAUUUCAGAUCAAA
RNA 2: GGGAAUGGAUCCACAUCUACGAAUUCGUUUUUGAUCUGAAAUAGUGAGGUCUGCAGAUCGGAAGAGCACACGU
B13: target 3 insU 3' of 14,insG 3' of 5 (mixed)
RNA 1: CACCCGUGCAAAAUUGCAGGGGUCUAAAACGACCUGAAUAUUUCAGAUCAAA
RNA 2: GGGAAUGGAUCCACAUCUACGAAUUCGUUUUUGAUCUGUAAAUAUUCAGGGUCUGCAGAUCGGAAGAGCACACGU
B14: target 3 G19U,U21A (mixed)
RNA 1: CACCCGUGCAAAAUUGCAGGGGUCUAAAACGACCUGAAUAUUUCAGAUCAAA
RNA 2: GGGAAUGGAUCCACAUCUACGAAUUCGUUUAUUAUCUGAAAUAUUCAGGUCUGCAGAUCGGAAGAGCACACGU
B15: target 3 G4U (mixed)
RNA 1: CACCCGUGCAAAAUUGCAGGGGUCUAAAACGACCUGAAUAUUUCAGAUCAAA
RNA 2: GGGAAUGGAUCCACAUCUACGAAUUCGUUUUUGAUCUGAAAUAUUCAUGUCUGCAGAUCGGAAGAGCACACGU
B16: target 3 insA 3' of 10,insC 3' of 8 (mixed)
RNA 1: CACCCGUGCAAAAUUGCAGGGGUCUAAAACGACCUGAAUAUUUCAGAUCAAA
RNA 2: GGGAAUGGAUCCACAUCUACGAAUUCGUUUUUGAUCUGAAAUAAUCUCAGGUCUGCAGAUCGGAAGAGCACACGU
B17: target 3 insG 3' of 2,insG 3' of 1 (mixed)
RNA 1: CACCCGUGCAAAAUUGCAGGGGUCUAAAACGACCUGAAUAUUUCAGAUCAAA
RNA 2: GGGAAUGGAUCCACAUCUACGAAUUCGUUUUUGAUCUGAAAUAUUCAGGUGCGUGCAGAUCGGAAGAGCACACGU
B18: target 3 U7G,U8C (mixed)
RNA 1: CACCCGUGCAAAAUUGCAGGGGUCUAAAACGACCUGAAUAUUUCAGAUCAAA
RNA 2: GGGAAUGGAUCCACAUCUACGAAUUCGUUUUUGAUCUGAAAUACGCAGGUCUGCAGAUCGGAAGAGCACACGU
B19: target 3 insC 3' of 22,insG 3' of 22 (mixed)
RNA 1: CACCCGUGCAAAAUUGCAGGGGUCUAAAACGACCUGAAUAUUUCAGAUCAAA
RNA 2: GGGAAUGGAUCCACAUCUACGAAUUCGUUUCGUUGAUCUGAAAUAUUCAGGUCUGCAGAUCGGAAGAGCACACGU
B20: target 3 C1U,U21A (mixed)
RNA 1: CACCCGUGCAAAAUUGCAGGGGUCUAAAACGACCUGAAUAUUUCAGAUCAAA
RNA 2: GGGAAUGGAUCCACAUCUACGAAUUCGUUUAUGAUCUGAAAUAUUCAGGUUUGCAGAUCGGAAGAGCACACGU
B21: target 3 G3A (mixed)
RNA 1: CACCCGUGCAAAAUUGCAGGGGUCUAAAACGACCUGAAUAUUUCAGAUCAAA
RNA 2: GGGAAUGGAUCCACAUCUACGAAUUCGUUUUUGAUCUGAAAUAUUCAGAUCUGCAGAUCGGAAGAGCACACGU
B22: target 3 C6U,U8C (mixed)
RNA 1: CACCCGUGCAAAAUUGCAGGGGUCUAAAACGACCUGAAUAUUUCAGAUCAAA
RNA 2: GGGAAUGGAUCCACAUCUACGAAUUCGUUUUUGAUCUGAAAUACUUAGGUCUGCAGAUCGGAAGAGCACACGU
B23: target 3 del4 (mixed)
RNA 1: CACCCGUGCAAAAUUGCAGGGGUCUAAAACGACCUGAAUAUUUCAGAUCAAA
RNA 2: GGGAAUGGAUCCACAUCUACGAAUUCGUUUUUGAUCUGAAAUAUUCAGUCUGCAGAUCGGAAGAGCACACGU
B24: target 3 G3C,U7G (mixed)
RNA 1: CACCCGUGCAAAAUUGCAGGGGUCUAAAACGACCUGAAUAUUUCAGAUCAAA
RNA 2: GGGAAUGGAUCCACAUCUACGAAUUCGUUUUUGAUCUGAAAUAUGCAGCUCUGCAGAUCGGAAGAGCACACGU
B25: target 3 C6A,U22A (mixed)
RNA 1: CACCCGUGCAAAAUUGCAGGGGUCUAAAACGACCUGAAUAUUUCAGAUCAAA
RNA 2: GGGAAUGGAUCCACAUCUACGAAUUCGUUAUUGAUCUGAAAUAUUAAGGUCUGCAGAUCGGAAGAGCACACGU
B26: target 3 C6G,A18G (mixed)
RNA 1: CACCCGUGCAAAAUUGCAGGGGUCUAAAACGACCUGAAUAUUUCAGAUCAAA
RNA 2: GGGAAUGGAUCCACAUCUACGAAUUCGUUUUUGGUCUGAAAUAUUGAGGUCUGCAGAUCGGAAGAGCACACGU
B27: target 3 insC 3' of 8,insA 3' of 6 (mixed)
RNA 1: CACCCGUGCAAAAUUGCAGGGGUCUAAAACGACCUGAAUAUUUCAGAUCAAA
RNA 2: GGGAAUGGAUCCACAUCUACGAAUUCGUUUUUGAUCUGAAAUAUCUCAAGGUCUGCAGAUCGGAAGAGCACACGU

The target of this data set is T1, EsCas13d, nuclease-dead (Eubacterium siraeum, UniProt B0MS50, R295A;H300A;R849A;H854A).
T1 sequence: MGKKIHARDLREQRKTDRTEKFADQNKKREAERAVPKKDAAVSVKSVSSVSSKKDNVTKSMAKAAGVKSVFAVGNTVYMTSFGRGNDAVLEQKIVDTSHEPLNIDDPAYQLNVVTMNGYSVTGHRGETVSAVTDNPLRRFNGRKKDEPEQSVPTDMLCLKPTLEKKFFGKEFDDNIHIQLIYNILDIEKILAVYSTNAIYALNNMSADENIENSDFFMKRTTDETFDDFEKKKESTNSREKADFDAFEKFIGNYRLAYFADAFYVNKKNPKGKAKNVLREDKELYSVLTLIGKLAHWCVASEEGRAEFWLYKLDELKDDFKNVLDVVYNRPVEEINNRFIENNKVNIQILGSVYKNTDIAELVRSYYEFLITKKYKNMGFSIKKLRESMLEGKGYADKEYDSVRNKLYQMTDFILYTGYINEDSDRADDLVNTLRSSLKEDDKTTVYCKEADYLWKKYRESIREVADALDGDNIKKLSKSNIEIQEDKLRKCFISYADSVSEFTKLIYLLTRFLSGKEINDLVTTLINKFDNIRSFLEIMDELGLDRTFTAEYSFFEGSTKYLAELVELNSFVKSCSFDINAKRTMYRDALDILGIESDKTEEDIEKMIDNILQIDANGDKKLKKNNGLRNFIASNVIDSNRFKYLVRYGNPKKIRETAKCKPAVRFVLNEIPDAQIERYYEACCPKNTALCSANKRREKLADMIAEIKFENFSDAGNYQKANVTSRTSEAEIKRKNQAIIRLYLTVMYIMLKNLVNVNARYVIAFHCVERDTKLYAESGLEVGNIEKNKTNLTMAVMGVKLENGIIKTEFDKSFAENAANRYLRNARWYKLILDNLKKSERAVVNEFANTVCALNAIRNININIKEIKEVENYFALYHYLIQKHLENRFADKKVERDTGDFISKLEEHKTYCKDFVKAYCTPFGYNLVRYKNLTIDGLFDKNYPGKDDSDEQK
Put plainly: crRNA (strand 1, pre-loaded); Mg2+; 40 mM Tris-HCl pH 7.5, 150 mM NaCl, 6 mM MgCl2, 1 mM DTT, 0.1% Tween-20, 0.2 mg/ml BSA; 25 C; 10 min per concentration, then washed. As to conditions: tags: His6-TwinStrep-SUMO cleaved; N-terminal SNAP kept (SNAP-Surface 488); label: 3' end held by stalled T7 RNA polymerase.
In the case of B1, the Kd was 8.5 ± 0.6 nM.
In turn, B2 had a Kd of 38 ± 4 nM.
The molecule B3 gave a Kd of 31 ± 4 nM.
The same measure for B4: 35 ± 7 nM; for B5: 20.4 ± 1.75 nM.
On to B6, for which the Kd amounted to 86.5 ± 19.5 nM.
Consider B7, for which binding was characterised by a dissociation constant (Kd) of 37.5 ± 13.5 nM.
B8 returned a Kd of about 90 nM.
The same measure for B9: 74.5 ± 15 nM; for B10: 32.5 ± 5.5 nM.
The molecule B11 yielded a Kd of 67.5 ± 12 nM.
Molecule B12 displayed a Kd of 64 ± 8.5 nM.
Molecule B13 came in with a Kd of 60.5 ± 19.5 nM.
With B14 the figure was 99.5 ± 14.5 nM.
In turn, B15 gave a Kd of 4.25 ± 0.335 nM.
Molecule B16 showed a Kd of 102 ± 37 nM.
B17 registered an equilibrium dissociation constant (Kd) of 25.6 ± 4.25 nM.
Molecule B18 registered a Kd of 70 ± 11 nM.
B19 yielded a Kd of 65.5 ± 21.5 nM.
For the molecule B20, the Kd is 84 ± 26 nM.
Molecule B21 gave a Kd of 46 ± 11.5 nM.
The same measure for B22: 33.5 ± 2.95 nM; for B23: 23.6 ± 3 nM; for B24: 60 ± 7.5 nM.
For the molecule B25, the Kd amounted to 59.5 ± 6.5 nM.
For B26, the Kd came out at 47 ± 9.5 nM.
As to B27, the Kd came out at 71 ± 10.5 nM.
